Data: the RNAGym collection of RNA variant scans (doi:10.1021/acssynbio.7b00057)

B1: Pistol ribozyme (parent)
chain: GGGUCGUUGUUCCAUAAUCGCGUGGAUAUGGCACGCAAGUUUCUACCGGGCACCGUAAAUGUCCGACUGGAGCCGUUCGGGCGGCUAUAAACAGACCUCAGGCCCGAAGCGUGGCGGCACCUGCCGCCGGUGGUAAAAAAGAUCGGAAGAGCACACGUCU

Variants of: B1
Assay: aptazyme ON/OFF ratio, guanine; higher = stronger switching; co-transcriptional cleavage with and without guanine

Variant	aptazyme ON/OFF ratio
GGGUCGUAGCCCCAUAAUCGCGUGGAUAUGGCACGCAAGUUUCUACCGGGCACCGUAAAUGUCCGACUGGAGCCGUUCGGGCGGCUAUAAACAGACCUCAGGCCCGAAGCGUGGCGGCACCUGCCGCCGGUGGUAAAAAAGAUCGGAAGAGCACACGUCU	1.01
GGGUCGUAGCGCCAUAAUCGCGUGGAUAUGGCACGCAAGUUUCUACCGGGCACCGUAAAUGUCCGACUGGAGCCGUUCGGGCGGCUAUAAACAGACCUCAGGCCCGAAGCGUGGCGGCACCUGCCGCCGGUGGUAAAAAAGAUCGGAAGAGCACACGUCU	1.18
GGGUCGUAGCAUUAUAAUCGCGUGGAUAUGGCACGCAAGUUUCUACCGGGCACCGUAAAUGUCCGACUGGAGCCGUUCGGGCGGCUAUAAACAGACCUCAGGCCCGAAGCGUGGCGGCACCUGCCGCCGGUGGUAAAAAAGAUCGGAAGAGCACACGUCU	1.31
GGGUCGUAGCAUGAUAAUCGCGUGGAUAUGGCACGCAAGUUUCUACCGGGCACCGUAAAUGUCCGACUGGAGCCGUUCGGGCGGCUAUAAACAGACCUCAGGCCCGAAGCGUGGCGGCACCUGCCGCCGGUGGUAAAAAAGAUCGGAAGAGCACACGUCU	1.23
GGGUCGUAGCAUAAUAAUCGCGUGGAUAUGGCACGCAAGUUUCUACCGGGCACCGUAAAUGUCCGACUGGAGCCGUUCGGGCGGCUAUAAACAGACCUCAGGCCCGAAGCGUGGCGGCACCUGCCGCCGGUGGUAAAAAAGAUCGGAAGAGCACACGUCU	1.16
GGGUCGUAGCCUCAUAAUCGCGUGGAUAUGGCACGCAAGUUUCUACCGGGCACCGUAAAUGUCCGACUGGAGCCGUUCGGGCGGCUAUAAACAGACCUCAGGCCCGAAGCGUGGCGGCACCUGCCGCCGGUGGUAAAAAAGAUCGGAAGAGCACACGUCU	1.06
GGGUCGUAGCCACAUAAUCGCGUGGAUAUGGCACGCAAGUUUCUACCGGGCACCGUAAAUGUCCGACUGGAGCCGUUCGGGCGGCUAUAAACAGACCUCAGGCCCGAAGCGUGGCGGCACCUGCCGCCGGUGGUAAAAAAGAUCGGAAGAGCACACGUCU	1.08
GGGUCGUAGCCGCAUAAUCGCGUGGAUAUGGCACGCAAGUUUCUACCGGGCACCGUAAAUGUCCGACUGGAGCCGUUCGGGCGGCUAUAAACAGACCUCAGGCCCGAAGCGUGGCGGCACCUGCCGCCGGUGGUAAAAAAGAUCGGAAGAGCACACGUCU	1.27
GGGUCGUAGCCAGAUAAUCGCGUGGAUAUGGCACGCAAGUUUCUACCGGGCACCGUAAAUGUCCGACUGGAGCCGUUCGGGCGGCUAUAAACAGACCUCAGGCCCGAAGCGUGGCGGCACCUGCCGCCGGUGGUAAAAAAGAUCGGAAGAGCACACGUCU	1.14
GGGUCGUAGCCAUAUAAUCGCGUGGAUAUGGCACGCAAGUUUCUACCGGGCACCGUAAAUGUCCGACUGGAGCCGUUCGGGCGGCUAUAAACAGACCUCAGGCCCGAAGCGUGGCGGCACCUGCCGCCGGUGGUAAAAAAGAUCGGAAGAGCACACGUCU	1.07
GGGUCGUAGCCAAAUAAUCGCGUGGAUAUGGCACGCAAGUUUCUACCGGGCACCGUAAAUGUCCGACUGGAGCCGUUCGGGCGGCUAUAAACAGACCUCAGGCCCGAAGCGUGGCGGCACCUGCCGCCGGUGGUAAAAAAGAUCGGAAGAGCACACGUCU	1.18
GGGUCGUAGCACUAUAAUCGCGUGGAUAUGGCACGCAAGUUUCUACCGGGCACCGUAAAUGUCCGACUGGAGCCGUUCGGGCGGCUAUAAACAGACCUCAGGCCCGAAGCGUGGCGGCACCUGCCGCCGGUGGUAAAAAAGAUCGGAAGAGCACACGUCU	1.07
GGGUCGUAGCACAAUAAUCGCGUGGAUAUGGCACGCAAGUUUCUACCGGGCACCGUAAAUGUCCGACUGGAGCCGUUCGGGCGGCUAUAAACAGACCUCAGGCCCGAAGCGUGGCGGCACCUGCCGCCGGUGGUAAAAAAGAUCGGAAGAGCACACGUCU	1.17
GGGUCGUAGCACGAUAAUCGCGUGGAUAUGGCACGCAAGUUUCUACCGGGCACCGUAAAUGUCCGACUGGAGCCGUUCGGGCGGCUAUAAACAGACCUCAGGCCCGAAGCGUGGCGGCACCUGCCGCCGGUGGUAAAAAAGAUCGGAAGAGCACACGUCU	1.07
GGGUCGUAGCGGAAUAAUCGCGUGGAUAUGGCACGCAAGUUUCUACCGGGCACCGUAAAUGUCCGACUGGAGCCGUUCGGGCGGCUAUAAACAGACCUCAGGCCCGAAGCGUGGCGGCACCUGCCGCCGGUGGUAAAAAAGAUCGGAAGAGCACACGUCU	1.29
GGGUCGUAGCGGUAUAAUCGCGUGGAUAUGGCACGCAAGUUUCUACCGGGCACCGUAAAUGUCCGACUGGAGCCGUUCGGGCGGCUAUAAACAGACCUCAGGCCCGAAGCGUGGCGGCACCUGCCGCCGGUGGUAAAAAAGAUCGGAAGAGCACACGUCU	1.14
GGGUCGUAGCGGGAUAAUCGCGUGGAUAUGGCACGCAAGUUUCUACCGGGCACCGUAAAUGUCCGACUGGAGCCGUUCGGGCGGCUAUAAACAGACCUCAGGCCCGAAGCGUGGCGGCACCUGCCGCCGGUGGUAAAAAAGAUCGGAAGAGCACACGUCU	1.26
GGGUCGUAGCGUGAUAAUCGCGUGGAUAUGGCACGCAAGUUUCUACCGGGCACCGUAAAUGUCCGACUGGAGCCGUUCGGGCGGCUAUAAACAGACCUCAGGCCCGAAGCGUGGCGGCACCUGCCGCCGGUGGUAAAAAAGAUCGGAAGAGCACACGUCU	1.2

Variant	aptazyme ON/OFF ratio
GGGUCGUAGCGUAAUAAUCGCGUGGAUAUGGCACGCAAGUUUCUACCGGGCACCGUAAAUGUCCGACUGGAGCCGUUCGGGCGGCUAUAAACAGACCUCAGGCCCGAAGCGUGGCGGCACCUGCCGCCGGUGGUAAAAAAGAUCGGAAGAGCACACGUCU	1.26
GGGUCGUAGCGUUAUAAUCGCGUGGAUAUGGCACGCAAGUUUCUACCGGGCACCGUAAAUGUCCGACUGGAGCCGUUCGGGCGGCUAUAAACAGACCUCAGGCCCGAAGCGUGGCGGCACCUGCCGCCGGUGGUAAAAAAGAUCGGAAGAGCACACGUCU	1.27
GGGUCGUAGCCCUAUAAUCGCGUGGAUAUGGCACGCAAGUUUCUACCGGGCACCGUAAAUGUCCGACUGGAGCCGUUCGGGCGGCUAUAAACAGACCUCAGGCCCGAAGCGUGGCGGCACCUGCCGCCGGUGGUAAAAAAGAUCGGAAGAGCACACGUCU	1.02
GGGUCGUAGCCCGAUAAUCGCGUGGAUAUGGCACGCAAGUUUCUACCGGGCACCGUAAAUGUCCGACUGGAGCCGUUCGGGCGGCUAUAAACAGACCUCAGGCCCGAAGCGUGGCGGCACCUGCCGCCGGUGGUAAAAAAGAUCGGAAGAGCACACGUCU	1.04
GGGUCGUAGCCCAAUAAUCGCGUGGAUAUGGCACGCAAGUUUCUACCGGGCACCGUAAAUGUCCGACUGGAGCCGUUCGGGCGGCUAUAAACAGACCUCAGGCCCGAAGCGUGGCGGCACCUGCCGCCGGUGGUAAAAAAGAUCGGAAGAGCACACGUCU	1.01
GGGUCGUAGCCGUAUAAUCGCGUGGAUAUGGCACGCAAGUUUCUACCGGGCACCGUAAAUGUCCGACUGGAGCCGUUCGGGCGGCUAUAAACAGACCUCAGGCCCGAAGCGUGGCGGCACCUGCCGCCGGUGGUAAAAAAGAUCGGAAGAGCACACGUCU	1.11
GGGUCGUAGCCGGAUAAUCGCGUGGAUAUGGCACGCAAGUUUCUACCGGGCACCGUAAAUGUCCGACUGGAGCCGUUCGGGCGGCUAUAAACAGACCUCAGGCCCGAAGCGUGGCGGCACCUGCCGCCGGUGGUAAAAAAGAUCGGAAGAGCACACGUCU	1.1
GGGUCGUAGCCGAAUAAUCGCGUGGAUAUGGCACGCAAGUUUCUACCGGGCACCGUAAAUGUCCGACUGGAGCCGUUCGGGCGGCUAUAAACAGACCUCAGGCCCGAAGCGUGGCGGCACCUGCCGCCGGUGGUAAAAAAGAUCGGAAGAGCACACGUCU	1.21
GGGUCGUAGCGGCAUAAUCGCGUGGAUAUGGCACGCAAGUUUCUACCGGGCACCGUAAAUGUCCGACUGGAGCCGUUCGGGCGGCUAUAAACAGACCUCAGGCCCGAAGCGUGGCGGCACCUGCCGCCGGUGGUAAAAAAGAUCGGAAGAGCACACGUCU	1.23
GGGUCGUAGCGACAUAAUCGCGUGGAUAUGGCACGCAAGUUUCUACCGGGCACCGUAAAUGUCCGACUGGAGCCGUUCGGGCGGCUAUAAACAGACCUCAGGCCCGAAGCGUGGCGGCACCUGCCGCCGGUGGUAAAAAAGAUCGGAAGAGCACACGUCU	1.09
GGGUCGUAGCGUCAUAAUCGCGUGGAUAUGGCACGCAAGUUUCUACCGGGCACCGUAAAUGUCCGACUGGAGCCGUUCGGGCGGCUAUAAACAGACCUCAGGCCCGAAGCGUGGCGGCACCUGCCGCCGGUGGUAAAAAAGAUCGGAAGAGCACACGUCU	1.37
GGGUCGUAGCCUAAUAAUCGCGUGGAUAUGGCACGCAAGUUUCUACCGGGCACCGUAAAUGUCCGACUGGAGCCGUUCGGGCGGCUAUAAACAGACCUCAGGCCCGAAGCGUGGCGGCACCUGCCGCCGGUGGUAAAAAAGAUCGGAAGAGCACACGUCU	1.05
GGGUCGUAGCCUUAUAAUCGCGUGGAUAUGGCACGCAAGUUUCUACCGGGCACCGUAAAUGUCCGACUGGAGCCGUUCGGGCGGCUAUAAACAGACCUCAGGCCCGAAGCGUGGCGGCACCUGCCGCCGGUGGUAAAAAAGAUCGGAAGAGCACACGUCU	1.04
GGGUCGUAGCCUGAUAAUCGCGUGGAUAUGGCACGCAAGUUUCUACCGGGCACCGUAAAUGUCCGACUGGAGCCGUUCGGGCGGCUAUAAACAGACCUCAGGCCCGAAGCGUGGCGGCACCUGCCGCCGGUGGUAAAAAAGAUCGGAAGAGCACACGUCU	1.06
GGGUCGUAGCGAUAUAAUCGCGUGGAUAUGGCACGCAAGUUUCUACCGGGCACCGUAAAUGUCCGACUGGAGCCGUUCGGGCGGCUAUAAACAGACCUCAGGCCCGAAGCGUGGCGGCACCUGCCGCCGGUGGUAAAAAAGAUCGGAAGAGCACACGUCU	1.25
GGGUCGUAGCGAGAUAAUCGCGUGGAUAUGGCACGCAAGUUUCUACCGGGCACCGUAAAUGUCCGACUGGAGCCGUUCGGGCGGCUAUAAACAGACCUCAGGCCCGAAGCGUGGCGGCACCUGCCGCCGGUGGUAAAAAAGAUCGGAAGAGCACACGUCU	1.23
GGGUCGUAGCGAAAUAAUCGCGUGGAUAUGGCACGCAAGUUUCUACCGGGCACCGUAAAUGUCCGACUGGAGCCGUUCGGGCGGCUAUAAACAGACCUCAGGCCCGAAGCGUGGCGGCACCUGCCGCCGGUGGUAAAAAAGAUCGGAAGAGCACACGUCU	1.26
GGGUCGUAGCAUCAUAAUCGCGUGGAUAUGGCACGCAAGUUUCUACCGGGCACCGUAAAUGUCCGACUGGAGCCGUUCGGGCGGCUAUAAACAGACCUCAGGCCCGAAGCGUGGCGGCACCUGCCGCCGGUGGUAAAAAAGAUCGGAAGAGCACACGUCU	1.2
